# ± gives the uncertainty stated by the source.
# B1: Retinoic acid receptor beta, residues 85 to 161; numbered along this chain, P10826 (parent)
# chain: YKPCFVCQDKSSGYHYGVSACEGCKGFFRRSIQKNMIYTCHRDKNCVINKVTRNRCQYCRLQKCFEVGMSKESVRND
# Variants of: B1
# Experiment: abundance fitness (aPCA) (normalised: wild type 0, dead -1); higher = more abundant; growth selection in yeast, the domain comes from the species named
# Conditions: Homo sapiens
row,Variant,abundance fitness
1,S70A,-0.047 ± 0.047
2,S70C,-0.076 ± 0.067
3,S70P,-0.304 ± 0.094
4,N76D,0.018 ± 0.079
5,N76R,-0.039 ± 0.046
6,N76K,0.01 ± 0.058
7,N76E,0.194 ± 0.061
8,N76I,-0.149 ± 0.13
9,R75A,0.137 ± 0.044
10,R75N,0.073 ± 0.092
11,R75H,0.078 ± 0.11
12,R75E,0.124 ± 0.045
13,R75C,0.175 ± 0.065
14,R75Q,0.163 ± 0.095
15,K25C,0.02 ± 0.06
16,K25R,-0.069 ± 0.04
17,K25V,0.183 ± 0.038
18,G68R,-0.681 ± 0.078
19,G68W,-0.779 ± 0.12
20,G68I,-0.95 ± 0.24
21,G68H,-0.743 ± 0.24
22,G68A,-0.804 ± 0.11
23,G68T,-0.687 ± 0.12
24,G68Y,-1.05 ± 0.41

row,Variant,abundance fitness
1,K71P,-0.154 ± 0.089
2,K71H,-0.24 ± 0.12
3,K71R,-0.102 ± 0.041
4,K71Y,-0.216 ± 0.1
5,K71T,0.067 ± 0.067
6,K71S,-0.005 ± 0.051
7,K71C,-0.148 ± 0.072
8,K71N,-0.04 ± 0.095
9,K71G,-0.004 ± 0.038
10,D77A,-0.126 ± 0.063
11,D77Y,0.044 ± 0.1
12,D77V,-0.054 ± 0.057
13,D77L,-0.202 ± 0.073
14,D77F,-0.183 ± 0.32
15,D77Q,0.066 ± 0.12
16,D77H,0.087 ± 0.16
17,S12V,0.011 ± 0.04
18,S12A,0.057 ± 0.045
19,S12W,-0.106 ± 0.057
20,M36H,-0.025 ± 0.13
21,M36G,-0.141 ± 0.035
22,S11F,-0.377 ± 0.14
23,S11C,-0.414 ± 0.11
24,S11L,-0.263 ± 0.058

row,Variant,abundance fitness
1,V51S,0.011 ± 0.046
2,V51I,0.073 ± 0.062
3,V51Y,-0.003 ± 0.1
4,V51T,0.019 ± 0.057
5,V51R,-0.146 ± 0.052
6,V51K,-0.013 ± 0.063
7,V51A,-0.115 ± 0.08
8,K10Y,0.115 ± 0.069
9,K10T,0.078 ± 0.054
10,K10G,-0.045 ± 0.041
11,K10L,0.043 ± 0.045
12,K10F,0.026 ± 0.086
13,L61V,-0.499 ± 0.059
14,L61P,-0.754 ± 0.19
15,L61I,-0.207 ± 0.087
16,Q57A,0.158 ± 0.04
17,Q57H,0.079 ± 0.088
18,N45Q,0.078 ± 0.068
19,N45I,0.054 ± 0.066
20,N45C,0.02 ± 0.079
21,F27G,-0.715 ± 0.069
22,F27S,-0.773 ± 0.12
23,Y38D,-0.997 ± 0.34
24,Y38T,-0.173 ± 0.066

row,Variant,abundance fitness
1,Y38S,-0.417 ± 0.074
2,Y38F,-0.187 ± 0.12
3,Y38W,-0.282 ± 0.062
4,A20K,-1.08 ± 0.24
5,A20C,0.064 ± 0.064
6,A20E,-0.66 ± 0.1
7,A20S,-0.07 ± 0.052
8,A20P,-0.724 ± 0.2
9,G26V,-0.121 ± 0.042
10,G26S,-0.254 ± 0.066
11,G26E,0.107 ± 0.045
12,G26D,0.162 ± 0.078
13,G26C,-0.107 ± 0.069
14,G26Q,-0.11 ± 0.073
15,G26M,-0.396 ± 0.076
16,S73H,-0.061 ± 0.1
17,S73T,-0.106 ± 0.065
18,S73P,0.002 ± 0.068
19,S73Y,-0.231 ± 0.092
20,S73M,0.092 ± 0.055
21,S73V,0.001 ± 0.042
22,N49C,-0.598 ± 0.11
23,N49D,0.235 ± 0.051
24,N49L,-0.218 ± 0.055

row,Variant,abundance fitness
1,N49Q,-0.328 ± 0.057
2,R30K,0.152 ± 0.052
3,R30Q,-0.311 ± 0.1
4,R30L,-1.02 ± 0.16
5,N35R,-0.018 ± 0.037
6,N35E,0.159 ± 0.046
7,N35P,-0.312 ± 0.092
8,N35M,-0.149 ± 0.081
9,N35H,-0.373 ± 0.14
10,N35T,0.039 ± 0.063
11,N35I,-0.684 ± 0.32
12,N35W,-0.45 ± 0.072
13,T52C,-0.451 ± 0.08
14,T52S,0.032 ± 0.042
15,T52D,0.046 ± 0.053
16,I48N,-0.376 ± 0.17
17,I48S,-0.48 ± 0.061
18,I48V,-0.065 ± 0.04
19,K44S,0.056 ± 0.044
20,K44C,-0.113 ± 0.067
21,K44Y,-0.321 ± 0.098
22,K44P,-0.599 ± 0.21
23,K44E,-0.015 ± 0.051
24,Q62E,0.017 ± 0.059

row,Variant,abundance fitness
1,Q62S,0.012 ± 0.041
2,Q62K,0.125 ± 0.051
3,Q62D,-0.107 ± 0.057
4,F28W,-0.123 ± 0.05
5,F28E,-0.983 ± 0.17
6,F28V,-0.688 ± 0.08
7,F28P,-1.06 ± 0.42
8,F28L,-0.588 ± 0.079
9,F28M,-0.47 ± 0.11
10,C24F,-0.577 ± 0.14
11,C24L,-0.624 ± 0.11
12,Y1W,-0.221 ± 0.081
13,Y1M,0.067 ± 0.12
14,Y1Q,-0.132 ± 0.17
15,V74M,-0.027 ± 0.059
16,K34L,0.074 ± 0.04
17,K34W,0.05 ± 0.041
18,K34P,-0.084 ± 0.077
19,K34Y,-0.007 ± 0.086
20,K34N,0.089 ± 0.1
21,M69Y,-0.588 ± 0.32
22,M69T,-0.515 ± 0.21
23,M69G,-0.813 ± 0.11
24,M69V,-0.591 ± 0.096

row,Variant,abundance fitness
1,R53Y,0.116 ± 0.068
2,R53P,0.103 ± 0.054
3,R53H,0.016 ± 0.11
4,R53K,0.071 ± 0.063
5,R53I,0.127 ± 0.074
6,R29W,0.011 ± 0.045
7,C4I,-0.917 ± 0.42
8,C4F,-0.687 ± 0.25
9,R42S,0.014 ± 0.049
10,R42W,0.15 ± 0.043
11,R42P,-1.01 ± 0.33
12,R42I,-0.114 ± 0.097
13,I37V,0.032 ± 0.038
14,I37H,-0.161 ± 0.16
15,I37D,0.048 ± 0.079
16,K63R,-0.041 ± 0.032
17,K63G,-0.525 ± 0.044
18,K63E,-0.588 ± 0.087
19,C64A,-0.329 ± 0.052
20,C64N,-0.969 ± 0.42
21,C64I,-0.729 ± 0.36
22,C64T,-0.769 ± 0.14
23,C64L,-0.734 ± 0.09

# Source: the Human Domainome abundance scans (Beltran et al. 2025)
